Article PMC10397247
Read-outs that look alike come from different tables or passages of the source.

T1: P2-AA-12HGe-S
T1 chain: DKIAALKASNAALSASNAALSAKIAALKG

T2: P2-AA-12HGe-W
T2 chain: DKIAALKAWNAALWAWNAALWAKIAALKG

T3: P2-AA-12HGe-Q
T3 chain: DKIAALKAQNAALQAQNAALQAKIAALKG

T4: P2-AA-12HGe-T
T4 chain: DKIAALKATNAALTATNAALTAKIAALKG

T5: P2-AA-12HGe-E
T5 chain: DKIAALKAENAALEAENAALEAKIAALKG

T6: P2-AA-12HGe-D
T6 chain: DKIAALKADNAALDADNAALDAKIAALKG

T7: P2-AA-12HGe-R
T7 chain: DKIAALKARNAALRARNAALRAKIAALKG

T8: P2-AA-12HGe-A
T8 chain: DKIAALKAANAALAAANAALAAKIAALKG

T9: P2-AA-12HGe-H
T9 chain: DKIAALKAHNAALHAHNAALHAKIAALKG

T10: P2-AA-12HGe-M
T10 chain: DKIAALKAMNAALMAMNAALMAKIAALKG

T11: P2-AA
T11 chain: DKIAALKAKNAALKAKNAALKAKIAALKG

T12: P3-AA
T12 chain: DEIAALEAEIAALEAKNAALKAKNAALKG

T13: P10-AA
T13 chain: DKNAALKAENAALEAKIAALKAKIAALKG

T14: P4-AA
T14 chain: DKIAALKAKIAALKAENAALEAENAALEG

T15: P9-AA
T15 chain: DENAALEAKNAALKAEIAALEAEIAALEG

T16: AP7-AA
T16 chain: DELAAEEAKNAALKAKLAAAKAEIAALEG

T17: P8-AA
T17 chain: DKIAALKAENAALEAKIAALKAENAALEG

T18: AP8-AA
T18 chain: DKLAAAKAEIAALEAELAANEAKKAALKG

T19: P1-AA
T19 chain: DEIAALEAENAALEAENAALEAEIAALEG

T20: P12-AA
T20 chain: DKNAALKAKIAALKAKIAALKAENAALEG

T21: P7-AA
T21 chain: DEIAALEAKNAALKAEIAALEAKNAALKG

T22: AP5-AA
T22 chain: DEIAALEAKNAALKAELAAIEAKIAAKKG

T23: AP6-AA
T23 chain: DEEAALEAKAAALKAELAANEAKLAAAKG

T24: P11-AA
T24 chain: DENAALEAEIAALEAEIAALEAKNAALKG


Key:
Test in all cases: two-hybrid library CCmax;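 further: natural log of median RNA to DNA barcode read ratio; higher means stronger binding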
P2-AA-12HGe-S = molecular target: T1, P2-AA-12HGe-S
P2-AA-12HGe-W = molecular target: T2, P2-AA-12HGe-W; conditions: mean of both orientations
P2-AA-12HGe-Q = molecular target: T3, P2-AA-12HGe-Q; conditions: mean of both orientations
P2-AA-12HGe-T = molecular target: T4, P2-AA-12HGe-T; conditions: mean of both orientations
P2-AA-12HGe-E = molecular target: T5, P2-AA-12HGe-E; conditions: mean of both orientations
P2-AA-12HGe-D = molecular target: T6, P2-AA-12HGe-D
P2-AA-12HGe-R = molecular target: T7, P2-AA-12HGe-R; conditions: mean of both orientations
P2-AA-12HGe-A = molecular target: T8, P2-AA-12HGe-A; conditions: mean of both orientations
P2-AA-12HGe-H = molecular target: T9, P2-AA-12HGe-H; conditions: mean of both orientations
P2-AA-12HGe-M = molecular target: T10, P2-AA-12HGe-M; conditions: mean of both orientations
P2-AA = molecular target: T11, P2-AA; conditions: mean of both orientations
P3-AA = molecular target: T12, P3-AA; conditions: mean of both orientations
GCN2_T = molecular target: GCN2_T
P10-AA = molecular target: T13, P10-AA; conditions: mean of both orientations
P4-AA = molecular target: T14, P4-AA; conditions: mean of both orientations
P9-AA = molecular target: T15, P9-AA; conditions: mean of both orientations
AP7-AA = molecular target: T16, AP7-AA; conditions: mean of both orientations
P8-AA = molecular target: T17, P8-AA; conditions: mean of both orientations
AP8-AA = molecular target: T18, AP8-AA; conditions: mean of both orientations
P1-AA = molecular target: T19, P1-AA; conditions: mean of both orientations
P12-AA = molecular target: T20, P12-AA; conditions: mean of both orientations
P7-AA = molecular target: T21, P7-AA; conditions: mean of both orientations
AP5-AA = molecular target: T22, AP5-AA
AP6-AA = molecular target: T23, AP6-AA; conditions: mean of both orientations
P11-AA = molecular target: T24, P11-AA; conditions: mean of both orientations

Row | interaction score (P2-AA-12HGe-S; mean of both orientations) | interaction score (P2-AA-12HGe-W) | interaction score (P2-AA-12HGe-Q) | interaction score (P2-AA-12HGe-T) | interaction score (P2-AA-12HGe-E) | interaction score (P2-AA-12HGe-D; mean of both orientations) | interaction score (P2-AA-12HGe-R) | interaction score (P2-AA-12HGe-A) | interaction score (P2-AA-12HGe-H) | interaction score (P2-AA-12HGe-M) | interaction score (P2-AA) | Binder | further results
1 | -1.06 | -0.349 | 0.637 | -0.661 | 2.36 | -1.65 | -0.521 | -0.289 | -1.21 | 1.77 | -0.194 | DEIAALEAYNAALYAYNAALYAEIAALEG [P1-AA-12HGe-Y] | 
2 |  |  |  |  |  |  |  |  |  |  | -1.24 | DEIAALEAKNAALKAELAAIEAKIAAKKG [AP5-AA] | interaction score (P3-AA): -1.62; interaction score (GCN2_T): -0.794; interaction score (P10-AA): 1.37; interaction score (P4-AA): -0.912; interaction score (P9-AA): -0.644; interaction score (AP7-AA): -1.69; interaction score (P8-AA): 2.11; interaction score (AP8-AA): -1.08; interaction score (P1-AA): -1.35; interaction score (P12-AA): -1.41; interaction score (P7-AA): -0.672; interaction score (AP5-AA): -0.918; interaction score (AP6-AA): 1.53; interaction score (P11-AA): -0.907
3 | 1.02 | 0.93 | 2.16 | 1.77 | 2.2 | -1.52 | 1.45 | 1.71 | 0.866 | 1.82 | 1.39 | DEIAALEAMNAALMAMNAALMAEIAALEG [P1-AA-12HGe-M] | 
4 | -1.39 | -1.58 | 0.702 | -1.11 | 0.07 |  | 1 | -0.678 | -1.82 | -0.332 | 0.744 | DEIAALEASNAALSASNAALSAEIAALEG [P1-AA-12HGe-S] | interaction score (P2-AA-12HGe-D): -1.82
5 | 0.227 | -0.264 | 1.8 | 1.03 | 2.09 | -1.92 | 1.56 | 1.99 | 0.459 | 1.64 | 1.92 | DEIAALEAQNAALQAQNAALQAEIAALEG [P1-AA-12HGe-Q] | 

The remaining lines, values behind:

Row | Binder | interaction score (P2-AA-12HGe-S; mean of both orientations) | interaction score (P2-AA-12HGe-W) | interaction score (P2-AA-12HGe-Q) | interaction score (P2-AA-12HGe-T) | interaction score (P2-AA-12HGe-E) | interaction score (P2-AA-12HGe-D; mean of both orientations) | interaction score (P2-AA-12HGe-R) | interaction score (P2-AA-12HGe-A) | interaction score (P2-AA-12HGe-H) | interaction score (P2-AA-12HGe-M) | interaction score (P2-AA) | further results
6 | DEIAALEAWNAALWAWNAALWAEIAALEG [P1-AA-12HGe-W] | -0.243 | -0.0819 | 1.69 | -0.385 | 1.5 | -1.76 | 0.108 | 1.75 | -1.02 | 0.936 | -1.08 | 
7 | DEIAALEAANAALAAANAALAAEIAALEG [P1-AA-12HGe-A] |  | 0.0222 | 1.96 | 1.71 | 1.62 | -1.64 | 0.662 | 1.6 | 0.332 | 1.4 | 1.49 | interaction score (P2-AA-12HGe-S): -0.384
8 | DEIAALEADNAALDADNAALDAEIAALEG [P1-AA-12HGe-D] | -1.99 | -2.14 | -1.62 | -1.52 | -1.55 | -1.75 | 1.33 | -2.7 | -1.41 | -2.19 | 1.36 | 
9 | DEIAALEAHNAALHAHNAALHAEIAALEG [P1-AA-12HGe-H] | -1.37 | -1.45 | 0.16 | -1.51 | 2 | -1.6 | -1.54 | 0.105 | -1.82 | -0.622 | -1.14 | 
10 | DEIAALEARNAALRARNAALRAEIAALEG [P1-AA-12HGe-R] | 1.19 | -1.15 | 1.28 | 0.3 | 2.08 | 1.05 | -0.893 | 1.68 | -0.986 | -0.0699 | -0.71 | 
11 | DEIAALEATNAALTATNAALTAEIAALEG [P1-AA-12HGe-T] | -0.683 | -1.56 | 0.761 | -0.824 | 1.26 | -1.6 | -0.61 | 0.941 | -1.51 | -0.103 | -0.397 | 
12 | DEIAALEAKNAALKAKNAALKAEIAALEG [P1-AA-12HGe-K] | 0.655 | -2.11 | 1.06 | -0.493 | 2.31 | 0.189 | -1.01 | 1.6 | -1.62 | 0.464 | -0.289 | 
